The values that follow are results of earlier work, collected in publication PMC4496705.

pKd: −log10 of the molar value.

One may read the pKd as −log10 of the Kd, conventionally taken in molar units.

One series concerns the target SKIP (Homo sapiens) (UniProt Q13573). The series is described as follows: SPR.
The target of series [1] is hPrp4 peptide (Homo sapiens) (UniProt O43172). The series is described as follows: ITC. In general terms: Isothermal titration calorimetry measures the heat released or taken up as one component is titrated into another.
Chain of UniProt O43172 (O43172 whole entry): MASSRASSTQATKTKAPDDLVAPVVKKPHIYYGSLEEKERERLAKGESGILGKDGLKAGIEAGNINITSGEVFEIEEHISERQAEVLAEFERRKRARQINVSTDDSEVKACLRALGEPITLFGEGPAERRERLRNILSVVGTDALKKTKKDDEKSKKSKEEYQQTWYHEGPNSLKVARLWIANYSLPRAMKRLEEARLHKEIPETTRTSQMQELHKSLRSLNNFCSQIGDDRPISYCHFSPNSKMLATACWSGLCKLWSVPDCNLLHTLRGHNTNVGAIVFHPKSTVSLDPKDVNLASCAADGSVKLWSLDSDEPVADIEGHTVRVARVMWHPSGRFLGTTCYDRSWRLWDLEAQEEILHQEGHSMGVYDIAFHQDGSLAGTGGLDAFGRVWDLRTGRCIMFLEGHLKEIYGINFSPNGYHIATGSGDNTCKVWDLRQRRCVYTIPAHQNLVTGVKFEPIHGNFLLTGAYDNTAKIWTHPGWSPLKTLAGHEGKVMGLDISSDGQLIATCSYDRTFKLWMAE

Chain of UniProt Q13573 (Q13573 2-536): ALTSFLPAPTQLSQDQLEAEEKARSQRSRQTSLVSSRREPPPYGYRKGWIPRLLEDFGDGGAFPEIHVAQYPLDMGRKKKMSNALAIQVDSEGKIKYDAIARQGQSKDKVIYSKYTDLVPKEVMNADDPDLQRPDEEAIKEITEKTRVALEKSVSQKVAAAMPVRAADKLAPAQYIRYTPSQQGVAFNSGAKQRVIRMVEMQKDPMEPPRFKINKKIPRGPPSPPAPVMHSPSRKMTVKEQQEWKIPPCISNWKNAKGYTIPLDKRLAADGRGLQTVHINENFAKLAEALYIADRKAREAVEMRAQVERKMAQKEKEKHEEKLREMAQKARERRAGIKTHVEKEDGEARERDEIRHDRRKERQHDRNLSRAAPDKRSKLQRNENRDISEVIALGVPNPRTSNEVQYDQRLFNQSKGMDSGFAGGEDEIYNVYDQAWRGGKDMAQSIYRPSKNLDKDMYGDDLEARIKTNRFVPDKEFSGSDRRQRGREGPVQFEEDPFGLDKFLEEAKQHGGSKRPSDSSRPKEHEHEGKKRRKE

Regarding PPIL1 (from UniProt Q9Y3C6), in the series with SKIP (Homo sapiens), the pKd is 6.90.
For the substance PPIH (from UniProt O43447), the pKd in series [1] was 5.71.
